Tests used:
Test in all cases: peptide binding assay on Ni2+ coated plate (absorbance at 405 nm)
[1] = target: T1, CRK1 hC peptide (helix-C region of the CRK1 kinase domain); conditions: chain shown with the change; protein immobilized on a Ni2+ coated plate; triplicate; SUMO control absorbance subtracted; parent: est. 0.39; read off a plot
T1 chain: HRRADKDSAFVNELES

[2] = target: T2, JMD1 peptide of the ACR4 juxtamembrane domain; conditions: chain shown with the change; protein immobilized on a Ni2+ coated plate; triplicate; SUMO control absorbance subtracted; parent: est. 0.14; read off a plot
T2 chain: DTRSSKDSAFTKDNG

[3] = target: T3, pJMD1 peptide (JMD1 with phosphorylated Ser475); conditions: chain shown with the change; protein immobilized on a Ni2+ coated plate; triplicate; SUMO control absorbance subtracted; parent: est. 0.29; read off a plot
T3 chain: DTRSSKDSAFTKDNG

response [1]: 0.3 A405
response [2]: 0.042 A405
response [3]: 0.17 A405
B1: SUMO-tagged ACR4 KC (sACR4 KC), ACR4 intracellular domain lacking the JMD, Q9LX29 LLSLL motif replaced with AAAAA (residue numbers not printed) (protein)
chain: FKEESIVGKGSFSCVYKGVLRDGTTVAVKRAIMSSDKQKNSNEFRTELDLLSRLNHAHAAAAAGYCEECGERLLVYEFMAHGSLHNHLHGKNKALKEQLDWVKRVTIAVQAARGIEYLHGYACPPVIHRDIKSSNILIDEEHNARVADFGLSLLGPVDSGSPLAELPAGTLGYLDPEYYRLHYLTTKSDVYSFGVLLLEILSGRKAIDMHYEEGNIVEWAVPLIKAGDINALLDPVLKHPSEIEALKRIVSVACKCVRMRGKDRPSMDKVTTALERALAQLMGNPSSEQPILPTEVVLGSSRMHKKSWRIGSKRSGSENTEFRGGSWITFPSVTSSQRRKSSASEGDVAEEEDEGRKQQEALRSLEEEIGPASPGQSLFLHHNF

— paper PMC4355418
